B1: SNX3 (parent)
chain: FLRQLPFRGDDGIFDDNFIEERKQ
B2: YPEL3 (parent)
chain: SKPKTFQAYLDDCHRRYSCAHCRA

Variants of: B1
Experiment: protein stability index of a GFP-peptide fusion (GPS, HEK-293T) (PSI 1-6); higher = more stable
Details: c terminus: a fixed tail appended
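Also: lentivirally expressed fusions sorted by FACS into six bins by GFP to DsRed ratio, PSI derived from sequencing read proportions per bin multiplied by bin number.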

Row | Variant | protein stability index
1 | FLRQLPFRGDDGIFDDNFIEEFKQ | 3.44
2 | FLRQLPFRGDDGIFDDNFIEEGKQ | 3.66
3 | FLRQLPFRGDDGIFDDNFIEEHKQ | 3.19
4 | FLRQLPFRGDDGIFDDNFIEEIKQ | 2.78
5 | FLRQLPFRGDDGIFDDNFIEEKKQ | 3.81
6 | FLRQLPFRGDDGIFDDNFIEELKQ | 2.87
7 | FLRQLPFRGDDGIFDDNFIEEMKQ | 3.45
8 | FLRQLPFRGDDGIFDDNFIEENKQ | 3.78
9 | FLRQLPFRGDDGIFDDNFIEEPKQ | 3
10 | FLRQLPFRGDDGIFDDNFIEEQKQ | 3.27
11 | FLRQLPFRGDDGIFDDNFIEESKQ | 2.81
12 | FLRQLPFRGDDGIFDDNFIEETKQ | 3.77
13 | FLRQLPFRGDDGIFDDNFIEEVKQ | 3.12
14 | FLRQLPFRGDDGIFDDNFIEEWKQ | 4.24
15 | FLRQLPFRGDDGIFDDNFIEEYKQ | 2.31
16 | FLRQLPFRGDDGIFDDNFIEERAQ | 3.45
17 | FLRQLPFRGDDGIFDDNFIEERCQ | 3.36
18 | FLRQLPFRGDDGIFDDNFIEERDQ | 4.48
19 | FLRQLPFRGDDGIFDDNFIEERFQ | 2.9
20 | FLRQLPFRGDDGIFDDNFIEERHQ | 3.38
21 | FLRQLPFRGDDGIFDDNFIEERIQ | 2.47
22 | FLRQLPFRGDDGIFDDNFIEERLQ | 2.49
23 | FLRQLPFRGDDGIFDDNFIEERMQ | 3.26
24 | FLRQLPFRGDDGIFDDNFIEERNQ | 3.92
25 | FLRQLPFRGDDGIFDDNFIEERPQ | 3.36
26 | FLRQLPFRGDDGIFDDNFIEERQQ | 3.21

Row | Variant | protein stability index
27 | FLRQLPFRGDDGIFDDNFIEERRQ | 2.95
28 | FLRQLPFRGDDGIFDDNFIEERSQ | 3.16
29 | FLRQLPFRGDDGIFDDNFIEERTQ | 3.52
30 | FLRQLPFRGDDGIFDDNFIEERVQ | 2.49
31 | FLRQLPFRGDDGIFDDNFIEERWQ | 2.75
32 | FLRQLPFRGDDGIFDDNFIEERYQ | 2.99
33 | FLRQLPFRGDDGIFDDNFIEERKA | 3.3
34 | FLRQLPFRGDDGIFDDNFIEERKC | 2.57
35 | FLRQLPFRGDDGIFDDNFIEERKD | 3.62
36 | FLRQLPFRGDDGIFDDNFIEERKE | 3.44
37 | FLRQLPFRGDDGIFDDNFIEERKF | 2.96
38 | FLRQLPFRGDDGIFDDNFIEERKG | 3.29
39 | FLRQLPFRGDDGIFDDNFIEERKH | 2.91
40 | FLRQLPFRGDDGIFDDNFIEERKI | 3.02
41 | FLRQLPFRGDDGIFDDNFIEERKK | 4.36
42 | FLRQLPFRGDDGIFDDNFIEERKL | 2.79
43 | FLRQLPFRGDDGIFDDNFIEERKM | 2.56
44 | FLRQLPFRGDDGIFDDNFIEERKN | 4.03
45 | FLRQLPFRGDDGIFDDNFIEERKP | 2.6
46 | FLRQLPFRGDDGIFDDNFIEERKR | 3.48
47 | FLRQLPFRGDDGIFDDNFIEERKS | 2.75
48 | FLRQLPFRGDDGIFDDNFIEERKT | 2.84
49 | FLRQLPFRGDDGIFDDNFIEERKV | 2.61
50 | FLRQLPFRGDDGIFDDNFIEERKW | 2.1
51 | FLRQLPFRGDDGIFDDNFIEERKY | 2.93

Variants of: B2
Experiment: as above
Details: c terminus: a fixed tail appended

Row | Variant | protein stability index
52 | SKPKTFQAYLDECHRRYSCAHCRA | 2.36
53 | SKPKTFQAYLDDVHRRYSCAHCRA | 2.54
54 | SKPKAFQAYLDDCHRRYSCAHCRA | 2.46
55 | AKPKTFQAYLDDCHRRYSCAHCRA | 2.11
56 | SKPKTFQAYLDDCHRRYSCAHCRS | 1.54
57 | SKPKTFQAYLDDCHRRYSCKHCRA | 2.95
58 | SKPKTFWAYLDDCHRRYSCAHCRA | 1.73
59 | SKPKSFQAYLDDCHRRYSCAHCRA | 1.77
60 | SKPKTFQAYLDDCHRRISCAHCRA | 2.13
61 | SKPKTFQAYLDDCHRRTSCAHCRA | 2.37
62 | SKPKTSQAYLDDCHRRYSCAHCRA | 3.3
63 | SKPKTFQAYLDDCHRRDSCAHCRA | 2.44
64 | SKPKTFQAYLDDCHNRYSCAHCRA | 2.79
65 | SKPKTFQAILDDCHRRYSCAHCRA | 2
66 | SKPKTFQAYLDDCHRRYSCALCRA | 1.74
67 | SKPKTFQAYLCDCHRRYSCAHCRA | 3.36
68 | SKPKTFQAYLDDCHRNYSCAHCRA | 1.45
69 | SKPKTFQDYLDDCHRRYSCAHCRA | 1.54
70 | SKPKTFKAYLDDCHRRYSCAHCRA | 2.65
71 | SKPKTFQAYLDDCGRRYSCAHCRA | 3.08
72 | SKPKTFQAYLDDCHRRYRCAHCRA | 2.56
73 | SKPKTFQAYLDDCHDRYSCAHCRA | 2.67

Row | Variant | protein stability index
74 | SKPKTFQAYLDDCHRRYPCAHCRA | 2.15
75 | SKPKTFQAYADDCHRRYSCAHCRA | 2.54
76 | GKPKTFQAYLDDCHRRYSCAHCRA | 2.07
77 | SKPKTFQAYLDDCHRRYSCAHGRA | 2.75
78 | SKPKTFQKYLDDCHRRYSCAHCRA | 2.31
79 | SKPKTFQAYLDDCHRRYSCAHCRL | 1.87
80 | SKPKTFQAYLDDCHRQYSCAHCRA | 2.5
81 | SKPKTFQAYLDDCKRRYSCAHCRA | 2.78
82 | VKPKTFQAYLDDCHRRYSCAHCRA | 1.38
83 | SKPKTFQAYLDDCHPRYSCAHCRA | 1.82
84 | SIPKTFQAYLDDCHRRYSCAHCRA | 1.63
85 | SKPKTFQAYLDQCHRRYSCAHCRA | 2.01
86 | SKPKTFQCYLDDCHRRYSCAHCRA | 2.32
87 | SKPKTFQAYLDDCHRRYSCADCRA | 2.18
88 | SKPKTFQAYLDDCHRRYSFAHCRA | 1.53
89 | SKTKTFQAYLDDCHRRYSCAHCRA | 1.92
90 | SKPKTFQAYNDDCHRRYSCAHCRA | 2.62
91 | SKPKTFQAYLDDCIRRYSCAHCRA | 2.05
92 | SKPGTFQAYLDDCHRRYSCAHCRA | 2.71
93 | SKPKTFQAYLDDCHRRYSCAHIRA | 2.69
94 | SKPKTFQAYLDDCHRRYSCAGCRA | 1.28

Source: the supplement of paper PMC10567573
